# Reference: the RNAGym collection of RNA variant scans (doi:10.1073/pnas.2313332121)
# B1: TPR t1 (parent)
# chain: GACCAAUCUGCCCUCAGAGCUCGAGAACAUCUUCGGAUGCAGAGGAGGCAGGCUUCGGUGGCGCGAUAGCGCCAACGUCCUCAACCUCCAAUGCAUCCCACCACAUGAUGAUGCCUGAAGAGCCUUGGUUUUUUG
# Variants of: B1
# Assay: polymerase ribozyme fitness, log enrichment relative to wild type (log ratio); higher = more active; in vitro selection for triplet polymerase activity
# Procedure, shortened: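 Mutant libraries were PCR-built and transcribed for each subunit of a heterodimeric triplet polymerase ribozyme and selected for one round in triplicate at −7 °C, frozen, before gel excision of extended constructs and streptavidin-bead capture. Input and output libraries were Illumina-sequenced, keeping genotypes with ≥10 input reads and ≥1 read per output. Fitness is a logarithmic ratio of genotype to wild-type enrichment, in base 2, using inverse-variance-weighted replicate averages.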
row,Variant,polymerase ribozyme fitness (log ratio)
1,C13U A75G C76G U133A,-0.431
2,C13G C49A G60U,-2.3
3,U14C C49U A50U U55A,-6.51
4,C13U C20G,-4.55
5,C13U C15A G60A G113C G135U,-7.27
6,U14G A46U A74G C101A,-3.18
7,U14G A90C,-3.4
8,C13G G17C A75U U87G U96A C104U,-5.5
9,C13U A46U C72G G122A,-1.17
10,C13A G61A,-1.81
11,C13U C73G C82A U87C C101A G110C G127A,-6.6
12,U14A C73A A74C G120A,-0.495
13,U14G A18U G61A C115A U129A U132A,-3.2
14,U14G G113C,-4.24
15,U14G G113U,-5.7
16,U14A G63C C82U U112G,-1.65
17,U14A G61A,-1.88
18,C13G G42U C49U G61U,-3.55
19,U14G G60C C70U,-3.06
20,C13U G39U G44U,-1.24
21,C13U A50G C85G C123G,-0.185
22,C13U G42U G61A A90U A95U,-1.48
23,C13G C15U G120A,-2.44
24,C13G A29G G42A,-5.99

row,Variant,polymerase ribozyme fitness (log ratio)
1,C13G G51A C97U A111G U129A,-6.21
2,U14C A37U,-1.93
3,C13U A29G A83G,-1.83
4,U14C U116G G120A U129A,-2.37
5,C13U G17A C123A,0.664
6,C13U G69C U116C G120C,-0.88
7,C13U C34G U133A,-4.86
8,C13G G48C G63U A105C C124A,-4.22
9,C13G C85G U112A G120C,-1.17
10,C13G G58C U92C,-3.7
11,C13G C85U C88A C102A A105G C124U,-6.67
12,C13G C40A C123U,-0.0334
13,C13U G35A G45A U87G,-4.53
14,C13G C56G C86G C98A C101A C102U G113A,-6.46
15,C13U C85U,-1.48
16,U14A G36A,-3.62
17,C15A A24G,-5.73
18,C13U G51U G52U U78C C82A,-2.57
19,C13G A16U C49A G63A,-3.65
20,C13G G69C C98U,-3.93
21,U14A C79G A83U,-5.11
22,C13G G117U,-4
23,C13U G52C C62U C94G A100U G113A,-3
24,C13U G52C U59C C104U G120U G127A,-1.32

row,Variant,polymerase ribozyme fitness (log ratio)
1,C13A U14G G42A A84U,-3.34
2,U14G C73A A90U,-3.66
3,C13U C53A U92G C101U,-1.94
4,C13G C20A C49U C64U U96G,-4.56
5,C13U C70A A121G,0.554
6,C13G C22G C72G C94U C99A G120C,-6.57
7,C13G A50U,-3.13
8,U14A C82A C98G G110C,-7.59
9,C13A G51A,-4.85
10,C13G G42A C85U C124G,-1.82
11,C13U A18G G36A G48U C72U A118U,-6.03
12,C13A U78G C88A A105U,-4.55
13,C13G G17C U112G U116G,-4.51
14,C13A G63A A74C G128A,-5.18
15,U14G A50U G61C C86A,-4.54
16,C13A G44A C89U C102G,-6.88
17,U14G A24G G61A U78C,-4.74
18,U14G G48A A50G C72A G120C A121C,-1.94
19,C13G C56U,-1.58
20,U14C C40A U87C,-3.01
21,U14G A27C C85A U109A C124A,-6.27
22,U14G G117A,-2.92
23,C13U C70G,-1.68
24,C13U C76G C85U C104G,-7.55

row,Variant,polymerase ribozyme fitness (log ratio)
1,U14C U21C G61A C101U,-3.37
2,C13U A41U U126C,-2.14
3,C13A U81A,-3.27
4,C13U A46U C56A C85U,-2.14
5,C13G C53G G93C C101A,-3.63
6,C13U G69C,-1.26
7,C13A G45A G113U G117C,-6.5
8,C13U U14G A16U G93U G120C,-3.43
9,C13U U30G U55G A111U,-4.31
10,C13U G45A G71C,-0.496
11,C13U A37G C101U,-0.644
12,C13A G69U C73G,-5.01
13,C13A G48A U96A,-2.1
14,C13U A29U C102U,-3.96
15,C13A U109A G110C G128U,-3.64
16,C13G C28U,-3.35
17,C13U G39A C70A C104U,-1.43
18,C13G A74G C79U,-1.86
19,U14G A43G G52A C53A G77C A100U,-5.52
20,C13G C94A C101G C123G,-1.76
21,C13G G17A U55G,-5.5
22,U14C U112G G113U,-5.07
23,C13U A74C,0.251
24,C13U C72U A74C,0.529

row,Variant,polymerase ribozyme fitness (log ratio)
1,C13G G63C,-1.92
2,C13G G63A,-2.24
3,C13G G63U,-2.53
4,U14A G44U G117U A118U,-4.78
5,C13G C79A G113A,-3.53
6,C13G C49U G51A U125A,-4.36
7,U14G C73G C82A,-3.08
8,C13G C73U A91C,-2.89
9,C13A G71U A74G U109A,-6.36
10,C13G A37U,-1.57
11,C13G A37G,-2.1
12,U14G A74U,-2.04
13,C13U C70G A83C U112C,-1.45
14,C13G G36U A75G G77A C123U,-0.649
15,C13A G61A C89A,-3.18
16,U14C G77A,-2.6
17,C13U A41G G60U,-0.254
18,U14A A50G,-2.52
19,C13U C79A C115A G127C,-1.14
20,C13A G42C A66C C99U C101U C114U G127U,-6.24
21,C13G C53A G69U C79A G120C,-0.403
22,C13A G39U U59G G69C,-3.36
23,U14G A50G A84G,-3.03
24,C13U C82U,-0.268

row,Variant,polymerase ribozyme fitness (log ratio)
1,U14C U54G G93C C104U U116G,-3.88
2,U14A G17A C20G C115U,-5.9
3,C13U G58C A84G,-0.641
4,U14A G19C A83C C89A A111C C114G,-5.57
5,U14G C123U,-0.161
6,C15A A27C U55G,-5.9
7,U14C C15A A46C,-5.53
8,C13G A41C A50U U133A,-4.37
9,C13G C34A,-4.26
10,C13G U59C C124A,1.58
11,U14G G44C G71U U78A,-3.39
12,C13G U32C U78C,-2.51
13,C13U A37U G42U G63U C85U U112A,-3.9
14,C13U G35C G48C C73A A74G C104U,-4.6
15,U14C A46U A74G,-1.32
16,C13G C62U U125A,-1.62
17,C13U A27G G47A C64U,-3.03
18,C13U G71U U78G U133G,-0.454
19,U14G G47C C85G G117A,-5.3
20,C13G C79U,-2.23
21,C13U C115A,-0.378
22,U14C A18G,-4.78
23,C13G C15U G69A C114U,-6.44
24,C13U G51U C79G G127A,-2.92

row,Variant,polymerase ribozyme fitness (log ratio)
1,U14G G128A,-3.77
2,C13G C53G G63C,-2.03
3,C13U C49G A50U G58A A95G C114G,-5.63
4,C13G A41C,-3.32
5,C13U G71C,-0.732
6,C13U G51C C85A C124G,-3.2
7,C13U A46U U130G,-2
8,C13G G48U C64U,-2.15
9,C13U C40U G48U G110A G117U A118U,-4.23
10,C15A A37G G45U C72A G93U U112C G122C C123G U125A,-3.59
11,C13G A90C A95G,-3.14
12,C13G G48A C56A C73A,-3.11
13,U14A C22U A37U C79U A83C A84C,-5.43
14,U14G C53U U87A,-2.67
15,C13U C20G C64A C73U C104A G110U A121U,-7.37
16,U14C C49A C56U U92G C97U A111U,-6.85
17,C13U A41G C49A G52U,-1.15
18,C13U U81A,-0.11
19,U14G G61U C89A C99G G113C C115U,-6.86
20,C13U A50U C88G U112A G117A,-2.57
21,C13G G48C U106C U112G G122A G135A,-2.17
22,C13A G69U A74U U87A A100C U109A,-5.82
23,C13U C82A C97A,-4.74
